Data: patent publication US11311626B2, “Plasmin-cleavable anti-insoluble fibrin antibody-drug conjugate” (NATIONAL CANCER CENTER JAPAN, priority 2017, dated 2022)

B1: 1101: mAb (mouse IgG1) from clone 1101, mouse immunized with peptide of SEQ ID NO: 27; insoluble fibrin-specific antibody; VH SEQ ID NO: 12, VL SEQ ID NO: 16 (antibody, V domains shown)
VH: MECNWILPFILSVISGVYSEVQLQQSGTVLARPGASVKMSCKASGFSFTSYWMHWVKQRPGQGLEWIGAIYPGNSDTRNNQKFKGKAKLTAVTSANTAYMELSSLTNEDSAVYYCTRKAHYGNYGFAYWGQGTLVTVSAA
VL: MSGHSRNMKFPSQLLLFLLFRITGIICDIQMTQSSSYLSVSLGGRVTITCKASDHINNWLAWYQQKPGNAPRLLISGATSLETGVPSRFSGSGSGKDYTLSITSLQTEDVATYYCQQYWSTPLTFGAGTKLELKRADAAP
B2: 99-5: mAb (mouse IgG1) from clone 99-5, mouse immunized with peptide of SEQ ID NO: 26; insoluble fibrin-specific antibody; VH SEQ ID NO: 4, VL SEQ ID NO: 8 (antibody, V domains shown)
VH: MDWLWNLLFLMAAAQSIQAQIQLVQSGPELKKPGETVKISCKASGYTFTNYGMNWVKQAPGKGLKWMGWINTKIGEPTYAEEFKGRFAFSLETSASTAYLQINNLKNEDTATYFCARLLDYWGQGTTLTVSSAKTTPPSV
VL: METDTLLLWVLLLWVPGSTGDIVLTQSPASLAVSLGQRATISCRASESVDSYGNSFMHWYQQKPGQPPKLLIYRASNLESGIPARFSGSGSRTDFTLTINPVEADDVATYYCQQSNEDPRTFGGGTKLEIKRADAAPTVS

What was measured:
[1] = target: peptide of the epitope site of 102-10 (Homo sapiens, UniProt P02675); experiment: Verification of affinity by SPR (Biacore T200, multi cycle kinetics); assay type: binding; settings: for Dissociation rate constant kd: immobilized epitope peptide of 102-10; for Binding rate constant ka: immobilized epitope peptide of 102-10, antibody 48.875-1500 nM; for Kd: immobilized epitope peptide of 102-10, reference for relative affinity
Procedure: When an antigen is insoluble, although SPR is not suitable for verifying the affinity of the antigen, measurement by SPR was performed as reference for comparing relative affinity levels between antibodies.
The affinity of an antibody to insoluble fibrin was calculated based on analysis by surface plasmon resonance (SPR) using Biacore T200 (GE Healthcare) to evaluate the intermolecular interaction of the antibody. […] The immobilization was performed using an amine coupling kit (BR-1000-50, GE Healthcare) and setting the […] to 90 RU. Subsequently, an antigen-antibody reaction was performed using an antibody diluted to […], 93.75, 187.5, 375, 750, and 1500 nM with 1× HBS-N buffer by a multi cycle kinetics method under conditions shown in Table 1. After the measurement, analysis using BIA evaluation (GE Healthcare) was performed to determine the KD value, kd value, and ka value.

[2] = test system: triple mutant mouse-derived pancreatic cancer cell line; settings: Alexa 647-labeled antibody, 300 μg per mouse, tail vein, imaging 1 h to day 7, FIG. 2
Procedure: Accordingly, in vivo imaging was performed using the cell line. […] The pancreatic cancer cell line was cultured in 500 mL of a RPMI 1640 (FUJIFILM Wako Pure Chemical Corporation) medium supplemented with 100 mL of inactivated fetal bovine serum (FBS, Gibco) and 10 mL of 100 units/mL Penicillin, 100 μg/mL Streptomycin, and 250 ng/mL Amphotericin B (FUJIFILM Wako Pure Chemical Corporation). The culture supernatant was then removed. The cells were washed with PBS (Invitrogen), and 2 mL of Trypsin-EDTA [0.25% (w/v) trypsin-1.0 mmol/L ethylenediaminetetraacetic acid-4Na Solution with Phenol Red, FUJIFILM Wako Pure Chemical Corporation] was added thereto. The cells were detached by pipetting and placed in a 15-mL tube (Corning Incorporated), followed by centrifugation with a centrifuge (Universal centrifuge 5800, KUBOTA Corporation Co., Ltd.) at 270×g for 3 minutes at 4° C. The supernatant was removed, and the precipitate was resuspended in 10 mL of PBS, followed by centrifugation at 270×g for 3 minutes at 4° C. After repeating this procedure three times, the concentration was adjusted to 2×10^6 cells/50 μL with PBS, and the cell solution was subcutaneously injected to 5-week old BALB/c Slc nu/nu mice (Japan SLC, Inc.) at 50 μL per mouse from the left foot base. […] The control used was InVivoMAb Mouse IgG1 Isotype control (Bio X Cell). […]

Row | Molecule | Dissociation rate constant kd [1] | Binding rate constant ka [1] | Kd [1] | Accumulation of antibody to cancer [2]
1 | B1 | 0.00325 s⁻¹ | 93700 M⁻¹ s⁻¹ | 66.8 nM | high
2 | B2 | 0.000585 s⁻¹ | 18000 M⁻¹ s⁻¹ | 32.6 nM | high
